± gives the uncertainty stated by the source.
Test: amyloid nucleation score (Sup35N fusion, yeast selection) (log enrichment); library NNK1; higher = more nucleation; inactive = no reads after selection
Procedure, shortened: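 Peptides of 20 random codons fused to Sup35N were expressed in psi-negative yeast, induced 24 hours with 100 μM copper sulfate, then grown 7 days at 30°C on medium lacking adenine and uracil. Input and output plasmid inserts were Illumina-sequenced. Nucleation score is the DiMSum log enrichment of output over input reads, centred on the mode score of non-aggregating sequences, excluding sequences with under 100 input reads. Random libraries had three technical output replicates.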

Substance | amyloid nucleation score
YLINRRIYVPVYLLALVISL | -0.189 ± 0.4
WFRYYYLFNRVRTFRERTNF | 0.094 ± 1.4
VKESRCCSYGTVRSISQGLG | -0.512 ± 0.89
NVYLGGLVQYFCQWLAGSIR | 0.59 ± 0.62
ESMRFHRGEVGPLWDVRWGA | 1.61 ± 0.78
RLFGLPKYCYVILFPVDVCH | 0.132 ± 0.21
LVLCSFYYDKAWSPESCLME | -0.258 ± 0.62
ITETSSSETMLLVVRTWEVW | 0.332 ± 0.63
TSSSRSIDR | 0.16 ± 0.35
FKVSVALSWDDVSQFGYGYG | 0.117 ± 0.65
VSFILGSNCWAYKTTPMGFL | 0.881 ± 0.39
FQGLSFKHGAIGSAYSQSFD | inactive
VNPFIFLNRNCAPILGWTCC | 3.11 ± 0.11
CCFNYKSPWSMWFNLRLSNP | 5.06 ± 0.071
AGECRYLLMSVDGYIGLNLV | 1.07 ± 0.48
CISLTCVVYGSML | 7.213 ± 0.048
NVSFWFYPLSAFSRPFFGLH | 2.74 ± 0.28
GEYLRLSIWGLDKDNKGVQ | -0.073 ± 0.42
ADFVSFSSFYFWWHVVSLDT | 0.238 ± 0.56
LCANNFHHVDKTGFAICNIH | 3.64 ± 0.051
MSASLWRGNKVDHWHSECYK | -0.661 ± 0.64
NQACAFYNRLRFGK | 3.27 ± 0.14
AISYDTYYTGELSSLWSGLS | 0.666 ± 0.57
KYYMHLSSRDRRGAAWHLLF | -0.075 ± 0.29
IVTSMSYNFLLKLMAGPQLR | 0.274 ± 0.67

Substance | amyloid nucleation score
SDVGLGNKKSWGVRAVCLDE | 0.452 ± 1.2
LFIRGMIDDKVSITNYVC | -0.546 ± 0.31
GKEYYAIPMKNDGIARVNLR | 0.875 ± 0.28
TKFKIAYTCYFNMFHRRLCI | -0.374 ± 0.38
WYVLDDLHWIQGCNIGIVGG | inactive
LAVTFQGIGFSYSILHITTY | -0.164 ± 0.44
HDFPIR | inactive
LREFLPLSNTVVGFTLDSYV | -0.526 ± 0.9
EHSPRRGAL | 0.063 ± 0.66
VYRNAINSVIHFDGVVWGVG | inactive
VFTFLSMLRWVIFCNVVGVD | inactive
YAPLDDSMKLCHERGESLCM | 0.186 ± 0.83
VYWTVDIWVFFVTAC | 1.49 ± 0.13
TFIMSQSWFMQWPRTMAAMT | -0.346 ± 0.45
MPLSILQLKTRFFKPSNDSR | 5.42 ± 0.11
CSFGQIPCNLDQTGLLRARG | 1.1 ± 0.55
DAASHYINLCNHSAEFSKVG | 1.42 ± 0.53
SQSIAVCMVKCNCDCVHIGE | 6.126 ± 0.05
IINMMLSHRDNWLFYMSFVG | -0.308 ± 0.42
KEILVGLPMGGVRGCGSSSG | 0.505 ± 1.2
SSVLATFIKLQHQGRKRKDR | -0.198 ± 0.29
VIFRDPGQRRLSC | -0.858 ± 2.1
WENLKVSNYDLYSVLPLYGP | 0.381 ± 0.45
IRMDSCRTFYLSLSWHIYCS | 0.338 ± 0.23
IYNWH | 0.849 ± 0.66

Substance | amyloid nucleation score
TLVKLVVTIGLDIKDCGFVI | 0.018 ± 0.18
IGIFIGRLCCYIFGEVMR | 1.16 ± 0.16
FVIDV | -0.568 ± 0.98
VYILLRVRVWSFYVVVVSRF | 0.484 ± 0.28
VFVVN | -0.557 ± 0.55
FNAIWVVLRVRNREYKTSVL | 1.03 ± 0.7
SCYVLVMYCYDMSFCDTLCE | 0.024 ± 0.47
YSIYRINFPVIALHFTGHCV | -0.902 ± 0.9
YMWFMNRSILIIAELFVVFT | -0.287 ± 0.48
TNTLLTPGCGINAIGVALYV | -0.628 ± 0.3
RHISAAEPQSVESMIAKGN | -0.054 ± 0.98
PGGSIRGFSRLSKLHWDRGE | 0.252 ± 0.4
KSSTKGLISRGRFGYRVPSN | -0.215 ± 1.7
ASFGGINLPL | -0.236 ± 0.41
VLFAR | 0.566 ± 0.48
YVDSSI | -0.08 ± 0.97
SQAETLYFYVCQVLRGQYYD | 0.305 ± 0.32
NDNLVDNQT | 0.23 ± 0.75
NDRTKNQSYFP | -0.195 ± 0.29
SKARKIWYAWLVTPPMRQTE | 0.667 ± 0.3
DYTDMYTC | 0.571 ± 0.5
MRRRIQLDLRRFDPSCMKDV | -1.66 ± 1.1
RVLANCLCFKYNETRRGCTL | 0.218 ± 0.95
IGFRPGRNSVWLMSRDLNFW | -1.11 ± 1.4
LLLDTLVCVVKHTNTCFSKW | 0.503 ± 0.26

Substance | amyloid nucleation score
TSGIYRRSDFLERHIS | 0.993 ± 0.71
YINYHCFMIRFQFILVYRYQ | inactive
LVIPVDRDANGLCYR | 0.46 ± 0.6
GFYPHANLTMFRALNKCGEV | 0.501 ± 0.53
RFTGQWWYVFSLWAILSRIK | 0.357 ± 0.55
CHCNL | 1.81 ± 0.38
EIFSNPSVYHESMK | -0.072 ± 1.2
WCGLARREKCRMPNGHRVHI | -0.497 ± 0.48
CIRMVRGSTGSTVNMSSRCS | 0.347 ± 0.27
IPRYQSGLWGCCVY | 0.489 ± 0.58
HRVLYIPALDNVVCRDIWRV | 1.29 ± 0.46
TSVHDRQELRDRLV | 0.69 ± 0.32
VIDEFLSMCRVNMMGGVCRV | 2.28 ± 0.35
HPSVGYSSLVV | 0.841 ± 0.62
WIVRPSGCGVTTR | -0.414 ± 0.69
HGTVNLIYVNEI | 0.133 ± 0.67
CARNNHELVNYFKAFIPVVA | 0.751 ± 0.43
PLSVNLKYVYNLVVDLFGLP | 2.61 ± 0.19
MWLFYRWVRSCTCP | -0.042 ± 0.32
VSDYFG | 0.229 ± 0.87
VSLNASPL | 0.902 ± 0.57
VNVLRTII | 0.255 ± 0.27
ERGII | 0.621 ± 0.39
TRVSFYRSKFAFMFYYHVMV | 0.099 ± 0.79
YPYRV | -1.12 ± 1.2

Substance | amyloid nucleation score
LPGYVGQ | 0.472 ± 0.78
CLGYGYSSEDTQTSLCSGVE | -0.642 ± 1
VLHFHVDDMDYNFFSW | 0.578 ± 0.33
IYRAHYAIYSAF | -0.026 ± 0.64
GYRTLLS | 0.372 ± 1.4
NCSMPFETMMKHSRN | -0.068 ± 0.53
WEIAE | 0.939 ± 0.19
SNSRPGSGYSLFERTRYRNE | 0.345 ± 0.77
ATSGGYGRFLVIISFDWVGA | -0.34 ± 0.37
NVRSFWFSGNQSNIGGICWG | 0.204 ± 0.43
AHLRCDREDIVESTSECGVG | inactive
AGSGRGRGGCTSNRSDYSSG | -0.849 ± 1
TTVRGASANHVLTCYCPHYL | 0.601 ± 0.82
LKSDMIADTTAL | 2.67 ± 0.12
VSTILYFDFVSVLPSALIEK | 3.23 ± 0.18
VFTSNGNDLPISRSELRLNL | inactive
YCSQPSAWSLRLNRSCPHNM | -0.593 ± 1.1
LKSPTWPMSHSDRLTHRLLC | 0.004 ± 0.69
VECSCKLRLAASGGNYRGWG | 2.3 ± 0.25
VDNVRPWRGYQPHSLVLPIV | 0.516 ± 0.47
VLFGTCCRVILLWSV | 2.04 ± 0.43
YWAKGNCYVAFRLKWRYNCG | 1.69 ± 0.64
LPFLS | -0.116 ± 0.68
CIKNSLRRYMCAYFSWGRRG | -0.744 ± 1.2
TKNSRTRLASSSLIWNW | -1.45 ± 0.76

Substance | amyloid nucleation score
HVYMGYICCHAETDACMGCR | 4.57 ± 0.14
LVHPSWN | -0.311 ± 0.77
RWSILTIVSMGP | 0.196 ± 1.2
CRYFSSSSGEAGQIFVVICG | -0.201 ± 0.67
YLWLVWEDV | 0.721 ± 0.69
CLEVGFVCWNCNRLFKCLCQ | 1.1 ± 0.56
YSCFDRAPRFETSVESCDMS | 0.093 ± 0.87
VSPRFGLSSMGNYQKVLVYI | -0.651 ± 1.7
LMGDLYGSLRMCLVGSRWLL | 0.082 ± 1.2
NDQVNVNFS | 0.338 ± 0.22
KFILTVPMANSATYTFACLD | inactive
VRADHYFYITHIKLKMSRV | inactive
HYRRVTVMCPLRVFVYAPKT | 5.61 ± 0.094
AVVAIYSQILRNGSVLSWFP | 0.242 ± 0.51
KCIWFMHDFCYMVLMR | -0.164 ± 0.72
TNGWTQHKYKYRSFSGHFII | inactive
DFCFPSNVRGLDCGGSKGYR | inactive
CITTVPHQPMVLWTICFPTM | 0.614 ± 0.95
FQCDVIYA | -0.72 ± 0.52
NLGLR | 4.49 ± 0.077
IYVITVRPNVHNTLMHLIVT | 0.374 ± 0.73
SILCIF | 0.338 ± 1.2
YRIKGVNWALPLCLALLSLR | 0.068 ± 0.61
PVFGETGDY | -0.393 ± 0.4
WSYMVL | -0.645 ± 0.81

Substance | amyloid nucleation score
ALWNLCCHLGDGTAADSTVY | -0.46 ± 1.9
KVVRAACCQKMFERVGVHGG | -0.842 ± 0.94
RFSWPWTDYNMKNYA | -0.119 ± 0.21
EGTFRLID | 0.047 ± 0.3
FHMARKQETTSI | -0.18 ± 1.7
STCSPKELQFMSYVCWVKFC | 3.32 ± 0.11
LIIILVQQSEGACRILARD | 0.028 ± 0.34
VNKGFHFLILTTIINVDYGG | 4.64 ± 0.07
YVTMYVRMPGRFTTTHMWLI | -0.962 ± 0.63
LVAATP | 0.898 ± 0.66
GMSSRMPQLNSWEPRGGDSG | -0.144 ± 0.83
RSPRGSVFHMFI | 0.176 ± 1.6
VIASSATGYIHR | 2.46 ± 0.12
TYNYFCGLVIVVVNGVHLRV | 5.507 ± 0.047
CSCYAM | 3.25 ± 0.19
SPSKLGSE | 0.903 ± 0.56
CVWFFLFPVQAITLFDLESV | -0.033 ± 0.74
YPDNMWYLCMLCRGWMCETR | -0.644 ± 0.62
PRGLP | 0.694 ± 0.9
ISPVGIIMYQCSAWLTRFRS | 0.204 ± 0.43
ELLEILFCSTIVERKNHRRP | 2.11 ± 0.11
RALGIDIRIFMVDDNSAFSI | 0.347 ± 1.1
KPWYFVISW | -0.007 ± 1.2
